Laboratory results: article PMC3919030

Assays:
[1] = biological target: Vps4p (Saccharomyces cerevisiae) (UniProt P52917); settings: cited from earlier work
[2] = biological target: Acidianus hospitalis Vps4 (AhosVps4, wild type, full length) (Acidianus hospitalis); assay: SEC

Vta1p, sequence (Q06263 whole entry): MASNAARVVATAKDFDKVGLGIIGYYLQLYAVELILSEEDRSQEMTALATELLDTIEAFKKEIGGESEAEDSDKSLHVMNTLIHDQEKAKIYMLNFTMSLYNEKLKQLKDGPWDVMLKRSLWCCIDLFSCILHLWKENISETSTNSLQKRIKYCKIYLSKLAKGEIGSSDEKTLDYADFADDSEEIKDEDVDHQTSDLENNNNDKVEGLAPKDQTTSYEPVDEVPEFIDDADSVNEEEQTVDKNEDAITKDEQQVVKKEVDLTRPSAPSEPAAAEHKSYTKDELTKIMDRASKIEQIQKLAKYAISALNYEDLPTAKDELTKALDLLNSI
Vps4p (Saccharomyces cerevisiae), sequence (P52917 whole entry): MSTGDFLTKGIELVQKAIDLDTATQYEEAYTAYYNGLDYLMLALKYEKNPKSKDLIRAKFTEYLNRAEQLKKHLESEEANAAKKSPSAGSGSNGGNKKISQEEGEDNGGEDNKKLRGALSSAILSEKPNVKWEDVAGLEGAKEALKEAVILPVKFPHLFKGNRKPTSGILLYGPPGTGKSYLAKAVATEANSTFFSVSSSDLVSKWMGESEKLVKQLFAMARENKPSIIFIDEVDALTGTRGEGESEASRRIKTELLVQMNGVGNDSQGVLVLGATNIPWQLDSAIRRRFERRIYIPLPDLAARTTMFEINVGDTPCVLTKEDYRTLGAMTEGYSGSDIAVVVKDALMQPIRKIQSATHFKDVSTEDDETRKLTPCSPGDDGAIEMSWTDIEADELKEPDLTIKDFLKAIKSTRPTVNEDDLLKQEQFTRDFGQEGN

stoichiometry N [2] | Substance | Kd [1] [µM]
 | Vta1p (from UniProt Q06263) | 17
6 | Acidianus hospitalis Vps4 (AhosVps4, wild type, full length) (enzyme) | 
